Experimental data: paper PMC11098746 (2024)
No end group written: not given here.

Target: Circumsporozoite protein (CSP) (Plasmodium falciparum (isolate 3D7), UniProt Q7K740)
Assay: AVEXIS screen signal:noise (double-corrected)

Sequence of Circumsporozoite protein (CSP) (Q7K740 19-374): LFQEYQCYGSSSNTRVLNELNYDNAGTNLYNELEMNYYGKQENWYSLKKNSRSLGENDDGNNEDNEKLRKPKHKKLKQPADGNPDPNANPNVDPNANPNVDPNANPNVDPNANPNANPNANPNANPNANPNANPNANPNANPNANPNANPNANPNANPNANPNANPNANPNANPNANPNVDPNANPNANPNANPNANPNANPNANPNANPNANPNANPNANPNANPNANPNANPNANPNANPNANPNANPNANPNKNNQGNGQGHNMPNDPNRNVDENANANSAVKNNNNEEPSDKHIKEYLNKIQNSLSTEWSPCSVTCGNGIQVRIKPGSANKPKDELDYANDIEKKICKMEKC

Binder | binding score
ADP102 (protein, bait human Fc-tagged dimer) MARGAALALLLFGLLGVLVAAPDGGFDLSDALPDNENKKPTAIPKKPSAGDDFDLGDAVVDGENDDPRPPNPPKPMPNPNPNHPSSSGSFSDADLADGVSGGEGKGGSDGGGSHRKEGEEADAP | 0.919
ADP396 (protein, bait human Fc-tagged dimer) PSLIKQQVLKNVRIDPSSLSFNMWKEIPIPFYLSVYFFDVMNPSEILKGEKPQVRERGPYVYREFRHKSNITFNNNDTVSFLEYRTFQFQPSKSHGSESDYIVMPNILVLGAAVMMENKPMTLKLIMTLAFTTLGERAFMNRTVGEIMWGYKDPLVNLINKYFPGMFPFKDKFGLFAELNNSDSGLFTVFTGVQNISRIHLVDKWNGLSKVDFWHSDQCNMINGTSGQMWPPFMTPESSLEFYSPEACRSMKLMYKESGVFEGIPTYRFVAPKTLFANGSIYPPNEGFCPCLESGIQNVSTCRFSAPLFLSHPHFLNADPVLAEAVTGLHPNQEAHSLFLDIHPVTGIPMNCSVKLQLSLYMKSVAGIGQTGKIEPVVLPLLWFAESGAMEGETLHTFYTQLVLMPKVMHY | 2.67
ADP301 (protein, bait human Fc-tagged dimer) MAKLIALTLLGMGLALFRNHQSSYQTRLNALREVQPVELPNCNLVKGIETGSEDLEILPNGLAFISSGLKYPGIKSFNPNSPGKILLMDLNEEDPTVLELGITGSKFDVSSFNPHGISTFTDEDNAMYLLVVNHPDAKSTVELFKFQEEEKSLLHLKTIRHKLLPNLNDIVAVGPEHFYGTNDHYFLDPYLQSWEMYLGLAWSYVVYYSPSEVRVVAEGFDFANGINISPDGKYVYIAELLAHKIHVYEKHANWTLTPLKSLDFNTLVDNISVDPETGDLWVGCHPNGMKIFFYDSENPPASEVLRIQNILTEEPKVTQVYAENGTVLQGSTVASVYKGKLLIGTVFHKALYCEL | 1.58
ADP329 (protein, bait human Fc-tagged dimer) MAPPGSSTVFLLALTIIASTWALTPTHYLTKHDVERLKASLDRPFTNLESAFYSIVGLSSLGAQVPDAKKACTYIRSNLDPSNVDSLFYAAQASQALSGCEISISNETKDLLLAAVSEDSSVTQIYHAVAALSGFGLPLASQEALSALTARLSKEETVLATVQALQTASHLSQQADLRSIVEEIEDLVARLDELGGVYLQFEEGLETTALFVAATYKLMDHVGTEPSIKEDQVIQLMNAIFSKKNFESLSEAFSVASAAAVLSHNRYHVPVVVVPEGSASDTHEQAILRLQVTNVLSQPLTQATVKLEHAKSVASRATVLQKTSFTPVGDVFELNFMNVKFSSGYYDFLVEVEGDNRYIANTVELRVKISTEVGITNVDLSTVDKDQSIAPKTTRVTYPAKAKGTFIADSHQNFALFFQLVDVNTGAELTPHQTFVRLHNQKTGQEVVFVAEPDNKNVYKFELDTSERKIEFDSASGTYTLYLIIGDATLKNPILWNVADVVIKFPEEEAPSTVLSQNLFTPKQEIQHLFREPEKRPPTV | 0.882
ADP366 (protein, bait human Fc-tagged dimer) MESKGASSCRLLFCLLISATVFRPGLGWYTVNSAYGDTIIIPCRLDVPQNLMFGKWKYEKPDGSPVFIAFRSSTKKSVQYDDVPEYKDRLNLSENYTLSISNARISDEKRFVCMLVTEDNVFEAPTIVKVFKQPSKPEIVSKALFLETEQLKKLGDCISEDSYPDGNITWYRNGKVLHPLEGAVVIIFKKEMDPVTQLYTMTSTLEYKTTKADIQMPFTCSVTYYGPSGQKTIHSEQAVFDIYYPTEQVTIQVLPPKNAIKEGDNITLKCLGNGNPPPEEFLFYLPGQPEGIRSSNTYTLTDVRRNATGDYKCSLIDKKSMIASTAITVHYLDLSLNPSGEVTRQIGDALPVSCTISASRNATVVWMKDNIRLRSSPSFSSLHYQDAGNYVCETALQEVEGLKKRESLTLIVEGKPQIKMTKKTDPSGLSKTIICHVEGFPKPAIQWTITGSGSVINQTEESPYINGRYYSKIIISPEENVTLTCTAENQLERTVNSLNVSAISIPEHDEADEISDENREKVNDQAK | 3.25
ADP288 (protein, also: human Fc-tagged dimer) MDHSHHMGMSYMDSNSTMQPSHHHPTTSASHSHGGGDSSMMMMPMTFYFGFKNVELLFSGL | 0.576
ADP101 (protein, also: human Fc-tagged dimer) MWSTRSPNSTAWPLSLEPDPGMASASTTMHTTTIAEPDPGMSGWPDGRMETSTPTIMD | 1.1
ADP348 (protein, bait human Fc-tagged dimer) MAASAGAGAVIAAPDSRRWLWSVLAAALGLLTAGVSALEVYTPKEIFVANGTQGKLTCKFKSTSTTGGLTSVSWSFQPEGADTTVSFFHYSQGQVYLGNYPPFKDRISWAGDLDKKDASINIENMQFIHNGTYICDVKNPPDIVVQPGHIRLYVVEKENLPVFP | 0.706
ADP150 (protein, bait human Fc-tagged dimer) MALQLWALTLLGLLGAGASLRPRKLDFFRSEKELNHLAVDEASGVVYLGAVNALYQLDAKLQLEQQVATGPALDNKKCTPPIEASQCHEAEMTDNVNQLLLLDPPRKRLVECGSLFKGICALRALSNISLRLFYEDGSGEKSFVASNDEGVATVGLVSSTGPGGDRVLFVGKGNGPHDNGIIVSTRLLDRTDSREAFEAYTDHATYKAGYLSTNTQQFVAAFEDGPYVFFVFNQQDKHPARNRTLLARMCREDPNYYSYLEMDLQCRDPDIHAAAFGTCLAASVAAPGSGRVLYAVFSRDSRSSGGPGAGLCLFPLDKVHAKMEANRNACYTGTREARDIFYKPFHGDIQCGGHAPGSSKSFPCGSEHLPYPLGSRDGLRGTAVLQRGGLNLTAVTVAAENNHTVAFLGTSDGRILKVYLTPDGTSSEYDSILVEINKRVKRDLVLSGDLGSLYAMTQDKVFRLPVQECLSYPTCTQCRDSQDPYCGWCVVEGRCTRKAECPRAEEASHWLWSRSKSCVAVTSAQPQNMSRRAQGEVQLTVSPLPALSEEDELLCLFGESPPHPARVEGEAVICNSPSSIPVTPPGQDHVAVTIQLLLRRGNIFLTSYQYPFYDCRQAMSLEENLPCISCVSNRWTCQWDLRYHECREASPNPEDGIVRAHMEDSCPQFLGPSPLVIPMNHETDVNFQGKNLDTVKGSSLHVGSDLLKFMEPVTMQESGTFAFRTPKLSHDANETLPLHLYVKSYGKNIDSKLHVTLYNCSFGRSDCSLCRAANPDYRCAWCGGQSRCVYEALCNTTSECPPPVITRIQPETGPLGGGIRITILGSNLGVQAGDIQRISVAGRNCSFQPERYSVSTRIVCVIEAAETPFTGGVEVDVFGKLGRSPPNVQFTFQQPKPLSVEPQQGPQAGGTTLTIHGTHLDTGSQEDVRVTLNGVPCKVTKFGAQLQCVTGPQATRGQMLLEVSYGGSPVPNPGIFFTYRENPVLRAFEPLRSFASGGRSINVTGQGFSLIQRFAMVVIAEPLQSWQPPREAESLQPMTVVGTDYVFHNDTKVVFLSPAVPEEPEAYNLTVLIEMDGHRALLRTEAGAFEYVPDPTFENFTGGVKKQVNKLIHARGTNLNKAMTLQEAEAFVGAERCTMKTLTETDLYCEPPEVQPPPKRRQKRDTTHNLPEFIVKFGSREWVLGRVEYDTRVSDVP | 0.742
